Measured values: publication PMC7196805

Target: T1, JUNO (mouse (endogenous in mouse oocytes)) (UniProt Q9EQF4)
T1 sequence: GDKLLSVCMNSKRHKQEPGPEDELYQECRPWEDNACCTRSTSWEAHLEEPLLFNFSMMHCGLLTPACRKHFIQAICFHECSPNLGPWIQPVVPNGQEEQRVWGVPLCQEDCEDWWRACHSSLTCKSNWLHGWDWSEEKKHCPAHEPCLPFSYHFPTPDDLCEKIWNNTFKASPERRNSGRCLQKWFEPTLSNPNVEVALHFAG

B1: IZUMO1 (natural protein)
chain: CIKCDQFVTDALKTFENTYLNDHLPHDIHKNVMRMVNHEVSSFGVVTSAEDSYLGAVDENTLEQATWSFLKDLKRITDSDLKGELFIKELLWMLRHQKDIFNNLARQFQKEVLCPNKCGVMSQTLIWCLKCEKQLHICRKSLDCGERHIEVHRSEDLVLDCLLSWHRASKGLTDYSFYRVWENSSETLIAKGKEPYLTKSMVGPEDAGNYRCVLDTINQGHATVIRYDVTVLPPKHSEENQPPNIITQEEHETPVHVTPQTPPGQEPESELYPELHPELYPELIPTVAQNPEKKMKTRLLILLTLGFVVLVASIIISVLHFRKVSAKLKNASDEVKPTASGSKSDQSLSQQMGLKKASQADFNSDYSGDKSEATEN
With B1 the cell-oocyte binding assay: IZUMO1-expressing cultured cells bound per ZP-free oocyte (FIMP-expressing cells could not bind) (cells per oocyte) was 4, the cell-oocyte binding assay: transfected HEK293T cells coexpressing IZUMO1 and FIMP, bound per oocyte (coexpression of FIMP did not enhance the binding) (cells per oocyte) was 4.1 and the cell-oocyte binding assay: transfected HEK293T cells expressing IZUMO1 alone, bound per oocyte (cells per oocyte) was 4.5.
